{
  "source": "patent US20120177704A1",
  "biological_target": "human interleukin 12 (human) (UniProt P29459)",
  "sequence (P29459 23-219 limits assumed, chain 1 of 2)": "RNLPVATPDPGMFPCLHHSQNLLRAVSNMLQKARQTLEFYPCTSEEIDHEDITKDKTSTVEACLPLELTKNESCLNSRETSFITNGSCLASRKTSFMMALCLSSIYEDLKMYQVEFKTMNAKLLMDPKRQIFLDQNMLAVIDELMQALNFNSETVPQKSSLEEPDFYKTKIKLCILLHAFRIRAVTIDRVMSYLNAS",
  "sequence (P29460 23-328 limits assumed, chain 2 of 2, further chain)": "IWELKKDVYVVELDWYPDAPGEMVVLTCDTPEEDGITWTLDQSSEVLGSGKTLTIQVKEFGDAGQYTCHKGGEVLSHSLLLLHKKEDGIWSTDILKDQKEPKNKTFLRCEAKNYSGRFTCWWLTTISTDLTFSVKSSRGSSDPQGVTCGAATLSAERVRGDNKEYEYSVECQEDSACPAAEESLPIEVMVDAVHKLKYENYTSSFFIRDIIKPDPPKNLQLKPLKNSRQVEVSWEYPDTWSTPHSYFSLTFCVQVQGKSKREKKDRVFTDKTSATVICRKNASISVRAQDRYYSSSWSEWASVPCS",
  "assay": "cell-based or functional assay",
  "data": [
    {"substance": "monoclonal antibody ABT-874", "values": [
      {"measurement": "relative biological activity (mean IC50 of reference standard / IC50 of sample x 100%); inhibition of IL-12-stimulated IFN-γ production of NK-92 cells, IFN-γ measured by ELISA", "result": 98, "unit": "%"}
    ]}
  ]
}
